Legend:
[1] = test system: T1, Dn29 large serine recombinase (Desulfotomaculum nigrificans); test: cell_activity; conditions: HEK293FT, unfused LSR, UMI integration-site mapping
T1 sequence: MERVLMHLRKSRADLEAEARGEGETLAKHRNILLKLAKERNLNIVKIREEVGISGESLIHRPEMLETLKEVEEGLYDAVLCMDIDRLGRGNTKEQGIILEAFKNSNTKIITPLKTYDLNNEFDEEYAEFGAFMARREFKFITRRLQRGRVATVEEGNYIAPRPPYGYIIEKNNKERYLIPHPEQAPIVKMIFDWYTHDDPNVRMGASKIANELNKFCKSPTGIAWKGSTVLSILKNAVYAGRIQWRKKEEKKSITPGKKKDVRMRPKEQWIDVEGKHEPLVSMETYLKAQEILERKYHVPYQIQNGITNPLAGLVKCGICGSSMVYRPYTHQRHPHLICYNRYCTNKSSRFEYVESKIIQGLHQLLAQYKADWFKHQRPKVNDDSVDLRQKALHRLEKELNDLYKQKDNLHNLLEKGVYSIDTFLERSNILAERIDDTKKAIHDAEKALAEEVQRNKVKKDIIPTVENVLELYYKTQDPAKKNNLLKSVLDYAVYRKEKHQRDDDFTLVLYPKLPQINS

[2] = biological target: Dn29-XTEN32-(GGSS)2-dCas9 fusion (synthetic construct) (UniProt Q99ZW2); test: cell_activity; conditions: HEK293FT, attD donor plasmid, single gRNA near attH1, ddPCR; specificity about 78% of UMIs with guide 3

## Dn29 attH1 pseudosite (chr10:21,130,404, NEBL intron)
[1]
  activity (% of integrations at site): 30
[2]
  activity (% integration): < 30

— patent US20260185069
